Experimental data taken from PMC10783015.

Experiments:
[1] = molecular target: T1, H-NS (Salmonella enterica serovar Typhimurium ATCC 14028) (UniProt P0A1S2); assay: SPR; conditions: EMSA: 100 ng DNA in 1x TBE, 20 uL, 45 min at room temperature, 12% native PAGE, PargS competitor, 20 uM cAMP for CRP; SPR: streptavidin chip with biotinylated …
T1 sequence: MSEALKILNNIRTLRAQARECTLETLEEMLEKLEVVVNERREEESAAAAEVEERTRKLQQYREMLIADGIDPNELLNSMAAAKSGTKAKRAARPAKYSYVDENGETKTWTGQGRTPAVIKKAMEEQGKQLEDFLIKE

[2] = molecular target: T2, CRP (Salmonella enterica serovar Typhimurium ATCC 14028) (UniProt P0A2T6); assay: SPR; conditions: EMSA: 100 ng DNA in 1x TBE, 20 uL, 45 min at room temperature, 12% native PAGE, PargS competitor, 20 uM cAMP for CRP; SPR: streptavidin chip with biotinylated …
T2 sequence: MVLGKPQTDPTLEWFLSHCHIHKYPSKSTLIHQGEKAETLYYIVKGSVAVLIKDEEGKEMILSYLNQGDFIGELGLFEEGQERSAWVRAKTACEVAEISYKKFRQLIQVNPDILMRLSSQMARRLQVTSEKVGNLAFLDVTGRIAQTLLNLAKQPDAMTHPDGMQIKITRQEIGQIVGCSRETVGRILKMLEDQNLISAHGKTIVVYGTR

AAGAGCCTGAATATTCACCGGAATACCTTACGTTTATGAAGCGGGCTGTATTGCCCGCGCCAGTTTAAGAATTAGGGCGGGAGTATACTGCAAATGCCCGTTGGCGTCAGCATTGCGCGCGCGGCGCGTCGCCTGAAATATACGCAACAATAATCTGCATAAGCATTCAATAAACGCCCAATCAAATCAAAGGTTG (double strand) [PargS SPR]
binding [1]: no binding
Kd [2]: 1 nM

CTTATGTCGGTCATTGCCGTAGCGCTGCCGACGATCTTATAGCTATTGAGAACTCTCGTTTCACAACCTATGTTTTAATTTCAAAACGATCAATAATGAAACTTATGTTTTGTTATGGGTATCACATTTCGAATTTCATAATCCTGGCGTTTTTTATCGTT (double strand) [PiolT1 SPR]
binding [2]: no binding
